Measurements as given in patent US20120288878A1.

What was measured:
[1] = molecular target: mutant membrane-bound TNFα on stably transfected CHO cells (B-220 cells) (UniProt P01375); assay: FACS, gate P4: CHO cells bound to anti-CD19 beads (FIG. 3 middle panel)
[2] = molecular target: mutant membrane-bound TNFα on stably transfected CHO cells (B-220 cells) (UniProt P01375); assay: FACS, gate P4: CHO cells bound to anti-CD19 beads, mixed beads (FIG. 4)

Sequence of UniProt P01375 (P01375 other isoform, or with tags, fused parts or gaps mutant limits assumed): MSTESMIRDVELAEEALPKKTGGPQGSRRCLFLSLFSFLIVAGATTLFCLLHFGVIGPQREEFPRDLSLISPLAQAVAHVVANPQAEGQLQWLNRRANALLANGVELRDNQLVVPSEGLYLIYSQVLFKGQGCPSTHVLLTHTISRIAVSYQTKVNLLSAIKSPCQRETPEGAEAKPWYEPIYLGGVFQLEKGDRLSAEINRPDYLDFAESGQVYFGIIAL

Substance: APC-labeled unrelated antibody (anti-CD19) coated on beads
- # Events [1]: 6 events
- # Events [2]: 2 events
